In patent publication US10000743B2, “2-deoxy-scyllo-inosose reductase” (Asahi Kasei Chemicals Corporation, priority 2013, dated 2018):
Marks after values point to notes of the source that are not given here.

Tests used:
[1] = biological target: T1, DOI reductase from Burkholderia terrae strain AKC-020 (Paraburkholderia terrae, UniProt A0ABM7TVX3); assay: Km value and Vmax of purified DOI reductase; type: biochemical
Method: (§1) The protein concentration of the enzyme solution was also measured by the Bradford method.

[2] = biological target: T1, DOI reductase from Burkholderia terrae strain AKC-020; assay: Substrate specificity of purified DOI reductase (oxidation reaction, NAD+ to NADH at 340 nm); type: biochemical; details: substrate 5 mM
Method: A quantity of 10 μL of enzyme solution was added to 980 μL of 0.1 M buffer containing 1.0 μmol of NAD^+ and prewarmed for five minutes at 25° C. A quantity of 10 μL of each 0.1 M substrate was added and mixed immediately. The rate of increase in the absorbance (wavelength 340 nm) over two minutes was measured by spectrophotometer, and the activity by each substrate was compared. […] In the table, N.D. means that no reaction could be detected.

[3] = substrate: O[C@@H]1[C@@H](O)[C@H](O)C[C@@H](O)[C@H]1O; assay: purified protein, by the assay type; details: other: oxidation reaction
[4] = substrate: O=C1C[C@@H](O)[C@H](O)[C@@H](O)[C@@H]1O; assay: Km value and Vmax of purified DOI reductase; type: biochemical, Burkholderia terrae; details: other: reduction reaction
Method: as §1

[5] = substrate: NC(=O)c1ccc[n+]([C@@H]2O[C@H](COP(=O)(O)OP(=O)(O)OC[C@H]3O[C@@H](n4cnc5c(N)ncnc54)[C@H](O)[C@@H]3O)[C@@H](O)[C@H]2O)c1; assay: Km value and Vmax of purified DOI reductase; type: biochemical, Burkholderia terrae; details: other: 0.1M Gly-NaOH, pH 9.0
Method: as §1

[6] = Optimum pH of purified DOI reductase (DOI reduction, NADH decrease at 340 nm); type: biochemical; details: buffers of each pH, 25° C.
Method: A quantity of 10 μL of 0.1 M DOI was added and mixed immediately. The rate of decrease in the absorbance (wavelength 340 nm) over two minutes was measured by spectrophotometer, and the activity was compared at each pH.

[7] = Conversion of DOI to quercitol by enzymes from recombinant E. coli (HPLC, diastereomer excess); details: for Conversion rate: DOI to quercitol; for (−)-Vibo-quercitol produced: conversion of DOI; for Diastereomer excess of scyllo-quercitol: DOI converted to scyllo-quercitol
Method: Specifically, DOI conversion was carried out using a coenzyme regeneration system by formate dehydrogenase (FDH hereinafter, Roche Diagnostics Inc., product no. 244678). […] The reaction solution was incubated for three hours while shaking at 30° C.

[8] = DOI reducing activity of recombinantly expressed inositol dehydrogenases/DOIR; type: biochemical; details: for DOI reducing activity: expressed in E. coli BL21 (DE3); for catalytic activity to convert 2-deoxy-scyllo-inosose into (−)-vibo-quercitol / reduction of DOI (in words): recombinant expression in Escherichia coli
Method: Specifically, the reaction solution composition other than DOI (990 μL) was taken by cuvette and prewarmed for approximately 5 minutes at 25° C. After adding DOI solution (10 μL) and mixing quickly, the rate of decrease in the absorbance (wavelength […]) over two minutes was measured using a spectrophotometer (Shimadzu, UV-2550) regulated to 25° C. with water as the control, and the decrease in absorbance per minute was calculated. Next, each strain was evaluated by calculating the U per mL of crude enzymatic solution, defining the amount that decreases [sic; converts]
Furthermore, inositol dehydrogenase (Sf-Idh) from Sinorhizobium fredii USDA191 is an enzyme that oxidizes myo-inositol, and iolX (Bs-IolX) from Bacillus subtilis 168 is reported to encode an enzyme showing activity on scyllo-inositol. In addition, iolW (Bs-IolW) is said to be an NADPH-dependent inositol dehydrogenase. These six genes were introduced into an expression vector Pet21B(+) (Merck), and expressed by E. coli BL21 (DE3).

[9] = activity relative to the culture broth

O[C@@H]1[C@@H](O)[C@H](O)C[C@@H](O)[C@H]1O [(−)-vibo-quercitol, (1R,2R,4S,5R)-cyclohexane-1,2,3,4,5-pentol]
Vmax to (−)-vibo-quercitol ([1]; oxidation reaction): 16.45 U/mg
Substrate specificity (oxidation reaction) ([2]; pH 8.0, 25° C.): 8.21 U/mg
Substrate specificity (oxidation reaction) ([2]; pH 9.0, 25° C.): 13.93 U/mg

O[C@H]1[C@H](O)[C@@H](O)[C@H](O)[C@@H](O)[C@H]1O [Myo-inositol]
Substrate specificity (oxidation reaction) ([2]; pH 8.0, 25° C.): 3.21 U/mg
Substrate specificity (oxidation reaction) ([2]; pH 9.0, 25° C.): 5.71 U/mg

O=C1C[C@@H](O)[C@H](O)[C@@H](O)[C@@H]1O [DOI, 2-deoxy-scyllo-inosose]
Vmax to DOI ([1]; reduction reaction): 116.28 U/mg

B1: DOI reductase from Burkholderia terrae strain AKC-020 (Paraburkholderia terrae) (protein)
chain: MIRIAVLGAGRIGRIHAGNVAASPNAQLVVVADPVESAAKSLATRLGCEASTDPAGVLERKDIDAVVIGTPTDTHITFMLEAVRRGKAVLCEKPIDLDMEKSLAAANEVERQRGRVMLAFNRRFDPTSQAFRNAIDAGDVGEVRQVIISSRDPGMPPRDYVEHSGGIFRDMVIHDLDMARWLLGEEPVEVMAMASRLIDESLEKLTDFDTVMVQLRTASGKQCHINCCREAVYGYDQRMEVSGSKGMLLQENLRPSTIRRWSKEATDVREPLLNFFLERYEAAYKAELEAFVDALNTNSPLPTSVQDGLKALRLADAALESALSGKAVKV
Km [3]: 1.60 mM, 16.45 U/mg mM
Km [4]: 0.41 mM, 116.28 U/mg mM
Km [5]: 0.11 mM (0.1M Gly-NaOH, pH 9.0) mM

B2: DOIR: 2-deoxy-scyllo-inosose reductase from Burkholderia terrae strain AKC-020, amino acid sequence SEQ ID NO: 2 (protein)
chain: MIRIAVLGAGRIGRIHAGNVAASPNAQLVVVADPVESAAKSLATRLGCEASTDPAGVLERKDIDAVVIGTPTDTHITFMLEAVRRGKAVLCEKPIDLDMEKSLAAANEVERQRGRVMLAFNRRFDPTSQAFRNAIDAGDVGEVRQVIISSRDPGMPPRDYVEHSGGIFRDMVIHDLDMARWLLGEEPVEVMAMASRLIDESLEKLTDFDTVMVQLRTASGKQCHINCCREAVYGYDQRMEVSGSKGMLLQENLRPSTIRRWSKEATDVREPLLNFFLERYEAAYKAELEAFVDALNTNSPLPTSVQDGLKALRLADAALESALSGKAVKV
modifications: Burkholderia terrae AKC-020
pH of maximum activity [6]: 7.0-9.0
Conversion rate ([7]; from recombinant E. coli): ≥99%
(−)-Vibo-quercitol produced ([7]; from recombinant E. coli): 9.9 mM
DOI reducing activity [8, 9]: 11.2 U/Ml culture

B3: Bh-IolG: inositol dehydrogenase from Burkholderia sp. SJ98, homology with DOIR 79% (protein)
chain: MTRIAVLGAGRIGKIHAANVASNSDAKLVVVADPFEGAANSLAEKLGCEASTDCLSVIERDDVDAVVIGTPTDTHIQFMLHAVSKGKAVLCEKPIDLDMKKSLAAAKEVERHDGRVMLAFNRRFDPTSQAFRKAIDDGEVGDVRQVVITSRDPGMPPREYVTHSGGIFRDMVIHDLDLARWFLGEEPIEVMATGSRLVEPSLAEVPDFDTVMLQLRTESGKQCHINCCREAVYGYDQRLEVFGSRGMLLQENLRPSTIRRWSASATDAREPLLNFFLERYEAAYKTELTAFVEALRTNTTFPTSVADGLKALRLADCALESAMSCRSVKV
modifications: Burkholderia sp. SJ98
Conversion rate ([7]; from recombinant E. coli): ≥99%
(−)-Vibo-quercitol produced ([7]; from recombinant E. coli): 9.9 mM
DOI reducing activity [8, 9]: 11.7 U/Ml culture

B4: BS-IolX: iolX enzyme from Bacillus subtilis 168, reported activity on scyllo-inositol, homology with DOIR 36% (protein, UniProt P40332 1-342, looked up)
scyllo-inositol …: MEHQVRCAVLGLGRLGYYHAKNLVTSVPGAKLVCVGDPLKGRAEQVARELGIEKWSEDPYEVLEDPGIDAVIIVTPTSTHGDMIIKAAENGKQIFVEKPLTLSLEESKAASEKVKETGVICQVGFMRRFDPAYADAKRRIDAGEIGKPIYYKGFTRDQGAPPAEFIKHSGGIFIDCSIHDYDIARYLLGAEITSVSGHGRILNNPFMEQYGDVDQALTYIEFDSGAAGDVEASRTSPYGHDIRAEVIGTEGSIFIGTLRHQHVTILSAKGSSFDIIPDFQTRFHEAYCLELQHFAECVRNGKTPIVTDIDATINLEVGIAATNSFRNGMPVQLDVKRAYTGM
Remaining DOI [7]: 0.4 mM
Diastereomer excess of scyllo-quercitol ([7]; from recombinant E. coli): ≥99%
Diastereomer excess of scyllo-quercitol ([7]; from recombinant E. coli, listed as Bs-IolX): 99%
Conversion rate ([7]; from recombinant E. coli): 96%
scyllo-quercitol produced (printed in the (−)-vibo-quercitol column, footnote *) ([7]; from recombinant E. coli, converted into scyllo-quercitol): 9.6* mM
DOI reducing activity [8, 9]: 0.13 U/Ml culture
catalytic activity to convert 2-deoxy-scyllo-inosose into (−)-vibo-quercitol / reduction of DOI (in words) [8]: low ability

B5: Pa-Idh: inositol dehydrogenase from Pantoea sp. At-9b, homology with DOIR 58% (protein)
chain: MKIAVLGAGRIGNVHAMNVASNPNVELVAIADPFIDNAIKLTEKYGGKAVKEPMELIESNAVDAVIIATPTDTHVDLMLSAARNGKAVLCEKPVDLNLERAEVACAELKQCDVPVMIAFNRRFDPSAAEMHSAIAKGEVGELHQIMISSRDPGFASMDYLRHSGGIFRDMTIHDFDMARWLLGEEPVQVFASASRMLEPALEPLNDFDTVMVQMITKSGKQCHINCSRQAVYGHDQRIEAYGSAGMLLNDNLRPSTLRRFNKSATDARVPLVHFFLERYADAYRMELEAFISAVKHAKPVPVTPYDGYMALKLADCAQQSAETGLPVQL
modifications: Pantoea sp. At-9b
Conversion rate ([7]; from recombinant E. coli): ≥99%
(−)-Vibo-quercitol produced ([7]; from recombinant E. coli): 9.9 mM
DOI reducing activity [8, 9]: 8.4 U/Ml culture

B6: BS-IolW: NADPH-dependent inositol dehydrogenase from Bacillus subtilis 168, homology with DOIR 27% (protein, UniProt O32223 1-358, looked up)
scyllo-inositol …: MITLLKGRRKVDTIKVGILGYGLSGSVFHGPLLDVLDEYQISKIMTSRTEEVKRDFPDAEVVHELEEITNDPAIELVIVTTPSGLHYEHTMACIQAGKHVVMEKPMTATAEEGETLKRAADEKGVLLSVYHNRRWDNDFLTIKKLISEGSLEDINTYQVSYNRYRPEVQARWREKEGTATGTLYDLGSHIIDQTLHLFGMPKAVTANVMAQRENAETVDYFHLTLDYGKLQAILYGGSIVPANGPRYQIHGKDSSFIKYGIDGQEDALRAGRKPEDDSWGADVPEFYGKLTTIRGSDKKTETIPSVNGSYLTYYRKIAESIREGAALPVTAEEGINVIRIIEAAMESSKEKRTIMLEH
Remaining DOI [7]: 9.9 mM
DOI reducing activity ([8]; using NADPH as coenzyme): 0.69) (using NADPH as coenzyme) U/Ml culture
catalytic activity to convert 2-deoxy-scyllo-inosose into (−)-vibo-quercitol / reduction of DOI (in words) [8]: low ability

B7: Ps-Idh: inositol dehydrogenase from Pseudomonas synxantha BG33R, homology with DOIR 68% (protein)
chain: MLRIAVLGAGRIAKIHAANVAAHPNATLVLVADPWREGVDALSTQLGCEAAYDCAAVLNRKDIDAVVIGTPTDTHIDLLLAAVAQGKAVLCEKPIDLDIAKARSAAQTVERQGGKVMLGFNRRFDPDMLRLRQALDAGQIGAVRQVIITSRDPGLAPREYLEHSGGILRDMTIHDFDTARHLLGEEPVQVSAFASRLVDPSLEQIDDYDSVMVLLRTASGKQCHINCCRQAVYGYDQRVEVSGASGVLLTDNHRPSTLRHWSAEHTEALEPLQHFFLERYADAYRNELMQFVDALNEGRELPTGMRDGLYALHLADCALESVKTGRSVAVCYDR
modifications: Pseudomonas synxantha BG33R
Conversion rate ([7]; from recombinant E. coli): ≥99%
(−)-Vibo-quercitol produced ([7]; from recombinant E. coli): 9.9 mM
DOI reducing activity [8, 9]: 9.8 U/Ml culture
